# Results reported in patent US20200399391A1 (Sanofi, published 2020).
# T1: FcγRIIa 131H expressed on HEK cells (human, UniProt P12318 34-317)
# T1 sequence: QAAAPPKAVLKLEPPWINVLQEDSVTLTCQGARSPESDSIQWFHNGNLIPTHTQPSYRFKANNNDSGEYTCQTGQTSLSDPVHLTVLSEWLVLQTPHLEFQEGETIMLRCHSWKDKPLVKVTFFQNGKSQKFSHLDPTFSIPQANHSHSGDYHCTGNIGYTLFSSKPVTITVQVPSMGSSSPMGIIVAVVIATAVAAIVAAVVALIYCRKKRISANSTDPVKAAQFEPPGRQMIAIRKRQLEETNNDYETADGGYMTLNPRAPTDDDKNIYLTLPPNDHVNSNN
# T2: FcγRIIa extracellular domain with H131, histag (Biorbyt, batch ORB138408) (human, UniProt P12318 34-217)
# T2 construct: Bought protein; also called FcγRIIa H131; not shown: histag
# T2 sequence: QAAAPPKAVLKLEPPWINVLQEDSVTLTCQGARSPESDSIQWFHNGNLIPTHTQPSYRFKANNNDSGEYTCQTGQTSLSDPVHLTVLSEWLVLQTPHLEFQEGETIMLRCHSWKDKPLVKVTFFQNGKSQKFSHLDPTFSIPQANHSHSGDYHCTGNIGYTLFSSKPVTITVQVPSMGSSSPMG
# T3: FcγRIIb expressed on HEK cells (UniProt P31994 43-310, limits assumed)
# T3 construct: whole, on cells; also called HEK293T-FcγRIIb
# T3 sequence (looked up): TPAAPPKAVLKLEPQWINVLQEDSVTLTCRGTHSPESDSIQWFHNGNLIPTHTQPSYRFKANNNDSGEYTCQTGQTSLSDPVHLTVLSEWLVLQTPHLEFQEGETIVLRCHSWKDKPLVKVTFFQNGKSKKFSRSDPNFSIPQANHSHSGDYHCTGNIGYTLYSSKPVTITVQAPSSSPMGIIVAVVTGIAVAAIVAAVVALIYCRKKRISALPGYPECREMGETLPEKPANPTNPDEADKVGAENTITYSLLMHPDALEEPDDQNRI
# B1: mAb 3 (antibody, human IgG1, kappa)
# heavy: QVQLVQSGAEVAKPGTSVKLSCKASGYTFTDYWMQWVKQRPGQGLEWIGTIYPGDGDTGYAQKFQGKATLTADKSSKTVYMHLSSLASEDSAVYYCARGDYYGSNSLDYWGQGTSVTVSSASTKGPSVFPLAPSSKSTSGGTAALGCLVKDYFPEPVTVSWNSGALTSGVHTFPAVLQSSGLYSLSSVVTVPSSSLGTQTYICNVNHKPSNTKVDKKVEPKSCDKTHTCPPCPAPELLAGPDVFLFPPKPKDTLMISRTPEVTCVVVDVSHEDPEVKFNWYVDGVEVHNAKTKPREEQYNSTYRVVSVLTVLHQDWLNGKEYKCKVSNKALPAPEEKTISKAKGQPREPQVYTLPPSRDELTKNQVSLTCLVKGFYPSDIAVEWESNGQPENNYKTTPPVLDSDGSFFLYSKLTVDKSRWQQGNVFSCSVMHEALHNHYTQKSLSLSPG
# light: DIVMTQSHLSMSTSLGDPVSITCKASQDVSTVVAWYQQKPGQSPRRLIYSASYRYIGVPDRFTGSGAGTDFTFTISSVQAEDLAVYYCQQHYSPPYTFGGGTKLEIKRTVAAPSVFIFPPSDEQLKSGTASVVCLLNNFYPREAKVQWKVDNALQSGNSQESVTEQDSKDSTYSLSSTLTLSKADYEKHKVYACEVTHQGLSSPVTKSFNRGEC
# notes: also called HEAVY CHAIN 3 / LIGHT CHAIN 1
# How the values were obtained:
# [1] = target: T4, FcγRIIIa (CD16a) extracellular domain with V158, C-terminal histag (human, UniProt P08637 17-208); test: SPR, another experiment
# T4 construct: also called FcγRIIIa 158V; FcγRIIIa-histag; not shown: C-terminal histag
# T4 sequence (P08637 17-208 F176V): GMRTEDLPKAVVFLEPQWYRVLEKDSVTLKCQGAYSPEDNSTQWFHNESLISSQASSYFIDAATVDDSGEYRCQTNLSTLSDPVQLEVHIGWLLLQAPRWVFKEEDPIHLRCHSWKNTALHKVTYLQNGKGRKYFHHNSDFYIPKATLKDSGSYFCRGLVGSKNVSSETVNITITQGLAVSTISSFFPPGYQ
# [2] = target: T1, FcγRIIa 131H expressed on HEK cells; test: flow cytometry on HEK293T cells expressing the receptor
# [3] = target: T5, FcγRIIIa 158V expressed on cells (human, UniProt P08637 17-254); test: as above
# T5 construct: also called HEK293T-FcγRIIIa-158V; FcγRIIIa (CD16a) 158V
# T5 sequence (P08637 17-254 F176V limits assumed): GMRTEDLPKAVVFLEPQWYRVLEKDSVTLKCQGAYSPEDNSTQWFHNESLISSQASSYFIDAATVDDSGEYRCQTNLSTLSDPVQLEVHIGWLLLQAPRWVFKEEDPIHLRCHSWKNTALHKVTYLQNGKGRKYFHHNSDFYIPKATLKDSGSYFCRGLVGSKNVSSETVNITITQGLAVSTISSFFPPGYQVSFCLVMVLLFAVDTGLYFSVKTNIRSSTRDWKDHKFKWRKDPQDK
# [4] = target: T2, FcγRIIa extracellular domain with H131, …; test: AlphaScreen competition (relative IC50): untagged mAb displaces biotinylated anti-CD38 native IgG1 from FcγRIIa-histag
# [5] = target: T5, FcγRIIIa 158V expressed on cells; test: flow cytometry on HEK293T cells expressing the receptor, FITC anti-human IgG; mean apparent Kd
# [6] = target: T6, FcγRI expressed on HEK cells (UniProt P12314 16-374, limits assumed); test: flow cytometry on HEK293T cells expressing the receptor
# T6 construct: whole, on cells; also called HEK293T-FcγRI
# T6 sequence (P12314 16-374 limits assumed): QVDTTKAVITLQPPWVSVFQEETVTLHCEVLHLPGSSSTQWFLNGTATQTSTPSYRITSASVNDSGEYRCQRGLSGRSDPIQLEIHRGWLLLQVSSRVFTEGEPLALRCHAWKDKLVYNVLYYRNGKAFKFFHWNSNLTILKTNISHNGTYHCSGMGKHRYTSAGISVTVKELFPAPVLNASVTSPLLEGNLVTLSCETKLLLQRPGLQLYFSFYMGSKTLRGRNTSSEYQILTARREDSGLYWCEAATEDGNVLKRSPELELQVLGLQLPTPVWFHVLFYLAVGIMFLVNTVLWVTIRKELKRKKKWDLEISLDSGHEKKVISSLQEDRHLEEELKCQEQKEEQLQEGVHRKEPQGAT
# [7] = target: T5, FcγRIIIa 158V expressed on cells; test: cell-based or functional assay
# [8] = target: T4, FcγRIIIa (CD16a) extracellular domain …; test: SPR, against mAb 1
# [9] = target: T5, FcγRIIIa 158V expressed on cells; test: cell-based or functional assay; remark: listed apart in the source
# [10] = target: T3, FcγRIIb expressed on HEK cells; test: flow cytometry on HEK293T cells expressing the receptor; the text calls it fold lower affinity
# [11] = target: T3, FcγRIIb expressed on HEK cells; test: flow cytometry on HEK293T cells expressing the receptor, FITC anti-human IgG; mean Kd
# [12] = target: T6, FcγRI expressed on HEK cells; test: as above
# [13] = target: T2, FcγRIIa extracellular domain with H131, …; test: AlphaScreen competition, against mAb 1
# [14] = target: T4, FcγRIIIa (CD16a) extracellular domain …; test: SPR (BIAcore 2000), FcγRIIIa-histag captured on anti-His IgG, mAb 8-256 nM, two-state fit
# [15] = target: T1, FcγRIIa 131H expressed on HEK cells; test: flow cytometry on HEK293T cells expressing the receptor, FITC anti-human IgG; mean Kd
# [16] = target: T5, FcγRIIIa 158V expressed on cells; test: cell-based or functional assay; remark: listed apart in the source
binder,measurement,setting,value
B1,Kd,[1],75 nM
same,difference in affinity versus mAb 1,[2],5.3 fold
same,Fold difference in affinity versus mAb 1,[3],5.2 fold
same,IC50,[4],15 nM
same,Kd,[5],32 nM
same,difference in affinity versus mAb 1,[6],1.6 fold
same,"ADCC of RPMI-8226 cells, EC50 (calcein release)",[7],0.09 ng/mL
same,fold higher affinity than mAb 1,[8],9 fold
same,"ADCC of KMS-12BM cells, EC50 (calcein release)",[9],0.6 ng/mL
same,difference in affinity versus mAb 1,[10],3.3 fold
same,Kd,[11],222 nM
same,Kd,[12],14.7 nM
same,fold higher affinity compared to mAb 1,[13],> 18 fold
same,Kd,[14],50 nM
same,Kd,[15],222 nM
same,"ADCC of MOLP-8 cells, EC50 (calcein release)",[16],0.14 ng/mL
